Test results as given in US20140178935A1 (AVEO PHARMACEUTICALS, published 2014).

T1: recombinant mhm chimeric HGF protein containing human W507-L585 HGF sequence disposed within mouse HGF … (mouse-human-mouse chimera, UniProt Q08048 56-728)
T1 construct: CHO supernatant; also called mhm chimera (W507-L585); MHM chimera (507-585)
T1 chain: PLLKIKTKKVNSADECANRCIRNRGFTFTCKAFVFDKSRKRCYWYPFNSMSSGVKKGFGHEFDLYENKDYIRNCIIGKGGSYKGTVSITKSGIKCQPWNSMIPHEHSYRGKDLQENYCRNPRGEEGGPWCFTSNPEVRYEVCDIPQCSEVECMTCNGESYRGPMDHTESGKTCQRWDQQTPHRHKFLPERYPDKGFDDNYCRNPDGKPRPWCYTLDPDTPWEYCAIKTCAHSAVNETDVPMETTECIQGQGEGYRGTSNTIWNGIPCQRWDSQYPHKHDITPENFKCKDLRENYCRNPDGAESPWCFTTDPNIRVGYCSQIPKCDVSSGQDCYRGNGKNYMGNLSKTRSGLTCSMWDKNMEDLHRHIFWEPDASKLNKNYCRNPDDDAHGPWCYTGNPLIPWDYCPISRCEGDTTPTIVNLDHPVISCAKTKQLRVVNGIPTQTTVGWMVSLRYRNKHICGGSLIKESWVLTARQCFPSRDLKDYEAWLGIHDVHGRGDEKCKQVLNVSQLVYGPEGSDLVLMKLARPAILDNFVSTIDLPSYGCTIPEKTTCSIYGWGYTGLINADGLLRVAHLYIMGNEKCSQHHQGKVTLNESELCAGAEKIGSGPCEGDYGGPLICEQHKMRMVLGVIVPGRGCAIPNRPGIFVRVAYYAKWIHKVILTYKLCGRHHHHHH

T2: recombinant mhm chimeric HGF protein containing the region I499-R556 of hHGF disposed between murine sequences (mouse-human-mouse chimera, UniProt Q08048 56-728)
T2 construct: also called mhm chimera (I499-R556)
T2 chain: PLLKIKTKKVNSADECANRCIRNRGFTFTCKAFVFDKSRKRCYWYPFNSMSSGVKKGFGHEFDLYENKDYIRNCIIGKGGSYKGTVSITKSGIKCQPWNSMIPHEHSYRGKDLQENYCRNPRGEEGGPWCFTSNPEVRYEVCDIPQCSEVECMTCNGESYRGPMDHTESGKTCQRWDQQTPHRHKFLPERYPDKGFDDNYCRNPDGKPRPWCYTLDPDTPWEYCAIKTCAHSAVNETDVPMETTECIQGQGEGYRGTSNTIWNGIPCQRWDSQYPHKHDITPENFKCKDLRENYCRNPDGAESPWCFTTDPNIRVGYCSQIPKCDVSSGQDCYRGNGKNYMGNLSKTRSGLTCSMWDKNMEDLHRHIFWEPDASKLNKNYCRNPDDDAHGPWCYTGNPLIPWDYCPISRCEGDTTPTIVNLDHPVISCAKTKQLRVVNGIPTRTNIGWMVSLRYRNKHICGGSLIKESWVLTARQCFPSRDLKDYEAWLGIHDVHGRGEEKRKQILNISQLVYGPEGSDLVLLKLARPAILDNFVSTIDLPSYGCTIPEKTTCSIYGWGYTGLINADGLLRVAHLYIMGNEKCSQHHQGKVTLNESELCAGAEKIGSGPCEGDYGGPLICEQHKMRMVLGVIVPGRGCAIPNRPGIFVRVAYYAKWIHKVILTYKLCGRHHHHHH


Tests used:
[1] = biological target: T3, recombinant human HGF (R&D Systems, Catalog No. 294-HGN-025) (human, UniProt P14210 32-728); assay: cell-based or functional assay
[2] = biological target: T3, recombinant human HGF (R&D Systems, …); assay: competition ELISA (DELFIA): antibody inhibits biotinylated c-Met binding to plate-coated HGF
Protocol: The plates then were blocked with 200 μL of 5% non-fat dry milk in PBS for 1 hour at room temperature. […] 100 μL of sample per well was transferred to the assay plate and incubated for 2 hours at room temperature. The resulting plates were washed three times with PBS-0.1% Tween 20, and incubated for 1 hour at room temperature with Eu-labeled Streptavidin (Wallac, Catalog No. 1244-360) diluted 1:1000 in DELFIA assay buffer (Wallac, Catalog No. 4002-0010). The resulting plates were washed 3 times with DELFIA wash solution (Wallac, Catalog No. 4010-0010) and incubated with 100 μL/well DELFIA enhancement solution (Wallac #4001-0010) for 15 minutes at room temperature with agitation. The plates were read on Victor³V instrument (Perkin Elmer) using the Europium method. The IC₅₀ values were calculated using Prism.

[3] = biological target: T1, recombinant mhm chimeric HGF protein …; assay: SPR, antibody immobilized, HGF protein injected, 25 C
Protocol: (§1) Analyses were performed at 25° C. using PBS (GIBCO, Catalog No. 14040-133) containing 0.05% surfactant P20 (BIAcore, Catalog No. R-1000-54), 2 mg/mL BSA (EMD, Catalog No. 2930) and 10 mg/mL CM-Dextran Sodium salt (Fluka, Catalog No. 86524) as running buffer. […] The resulting binding was determined as resonance units (RU) over baseline 30 seconds after the end of injection. […] Non-specific binding was monitored by comparing binding to a control surface.

[4] = biological target: T4, recombinant mouse HGF (R&D Systems) (mouse, UniProt Q08048 33-728); assay: as above
T4 construct: Bought protein, construct not described; also called rmHGF (R&D Systems); murine HGF
Protocol: as §1

[5] = biological target: T2, recombinant mhm chimeric HGF protein …; assay: as above
Protocol: as §1

[6] = biological target: T3, recombinant human HGF (R&D Systems, …); assay: cell-based or functional assay; remark: listed apart in the source
[7] = biological target: T3, recombinant human HGF (R&D Systems, …); assay: SPR, captured antibody, HGF injected, 37 C
Protocol: Mouse anti-human immunoglobulins (Jackson Labs, Catalog No. 209-005) or rabbit anti-mouse immunoglobulins (BIAcore, Catalog No. BR-1005-14) were immobilized on carboxymethylated dextran CM4 sensor chips (BIAcore, Catalog No. BR-1006-68) by amine coupling (BIAcore, Catalog No. BR-1000-50) using a standard coupling protocol according to manufacturer's instructions. […] The analyses were performed at 25° C. and 37° C. using PBS (GIBCO, Catalog No. 14040-133) containing 0.05% surfactant P20 (BIAcore, Catalog No. BR-1000-54), and 2 mg/mL BSA (EMD, Catalog No. 2930) as running buffer.
The antibodies were captured in an individual flow cell at a flow rate of […]. Injection time was variable for each antibody to yield approximately 20 RU of antibody captured for each cycle. […] The dissociation phase was monitored for 15 or 90 minutes, depending on concentration. The surface of mouse anti-human immunoglobulins sensor chips was then regenerated with 10 mM Glycine-HCl, pH 2.2 (BIAcore, Catalog No. BR-1003-54) injected for 3 minutes at a flow rate of 60 μL/min before another cycle was initiated. The surface of rabbit anti-mouse immunoglobulins sensor chips was regenerated with 10 mM Glycine-HCl, pH 1.7 (BIAcore, Catalog No. BR-1003-54) injected for 3 minutes at a flow rate of 60 μL/min before another cycle was initiated.
Kinetic parameters were determined using the kinetic function of the BIAevaluation software with reference subtraction.

[8] = biological target: T3, recombinant human HGF (R&D Systems, …); assay: SPR, captured antibody, HGF injected, 25 C
Protocol: Mouse anti-human immunoglobulins (Jackson Labs, Catalog No. 209-005) were immobilized on carboxymethylated dextran CM4 sensor chips (BIAcore, Catalog No. BR-1006-68) by amine coupling (BIAcore, Catalog No. BR-1000-50) using a standard coupling protocol according to manufacturer's instructions. The analyses were performed at 25° C. using PBS (GIBCO, Catalog No. 14040-133) containing 0.05% surfactant P20 (BIAcore, Catalog No. BR-1000-54), and 2 mg/mL BSA (EMD, Catalog No. 2930).
The antibodies were captured in an individual flow cell at a flow rate of 10 μL/min. Injection time was variable for each antibody to yield approximately 20 RU of antibody captured for each cycle. […] The dissociation phase was monitored for 15 or 90 minutes, depending on concentration. The surface then was regenerated with 10 mM Glycine-HCl, pH 2.2 (BIAcore, Catalog No. BR-1003-54) injected for 3 minutes at a flow rate of 60 μL/min before another cycle was initiated.
Kinetic parameters were determined using the kinetic function of the BIAevalutation™ software with reference subtraction.

T3 sequence (P14210 32-728 limits assumed): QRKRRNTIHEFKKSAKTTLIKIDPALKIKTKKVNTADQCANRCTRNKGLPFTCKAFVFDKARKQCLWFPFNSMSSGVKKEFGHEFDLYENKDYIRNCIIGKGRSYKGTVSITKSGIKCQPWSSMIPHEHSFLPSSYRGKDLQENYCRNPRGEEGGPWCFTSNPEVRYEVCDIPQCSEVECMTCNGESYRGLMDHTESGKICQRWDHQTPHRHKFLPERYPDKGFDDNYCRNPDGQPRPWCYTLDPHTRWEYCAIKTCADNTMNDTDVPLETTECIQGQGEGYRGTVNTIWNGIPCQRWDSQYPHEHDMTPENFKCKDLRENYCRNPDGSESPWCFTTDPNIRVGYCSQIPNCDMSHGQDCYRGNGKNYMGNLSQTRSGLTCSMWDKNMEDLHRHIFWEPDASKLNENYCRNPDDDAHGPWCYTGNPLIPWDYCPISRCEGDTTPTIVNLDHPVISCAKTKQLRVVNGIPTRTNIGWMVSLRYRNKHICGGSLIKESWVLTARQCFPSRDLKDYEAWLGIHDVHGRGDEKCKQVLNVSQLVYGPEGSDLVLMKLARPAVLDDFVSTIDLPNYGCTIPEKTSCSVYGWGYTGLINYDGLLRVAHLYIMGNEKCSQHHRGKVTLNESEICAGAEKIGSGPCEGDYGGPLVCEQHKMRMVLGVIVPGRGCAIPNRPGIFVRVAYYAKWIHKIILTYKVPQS
T4 sequence (Q08048 33-728 limits assumed): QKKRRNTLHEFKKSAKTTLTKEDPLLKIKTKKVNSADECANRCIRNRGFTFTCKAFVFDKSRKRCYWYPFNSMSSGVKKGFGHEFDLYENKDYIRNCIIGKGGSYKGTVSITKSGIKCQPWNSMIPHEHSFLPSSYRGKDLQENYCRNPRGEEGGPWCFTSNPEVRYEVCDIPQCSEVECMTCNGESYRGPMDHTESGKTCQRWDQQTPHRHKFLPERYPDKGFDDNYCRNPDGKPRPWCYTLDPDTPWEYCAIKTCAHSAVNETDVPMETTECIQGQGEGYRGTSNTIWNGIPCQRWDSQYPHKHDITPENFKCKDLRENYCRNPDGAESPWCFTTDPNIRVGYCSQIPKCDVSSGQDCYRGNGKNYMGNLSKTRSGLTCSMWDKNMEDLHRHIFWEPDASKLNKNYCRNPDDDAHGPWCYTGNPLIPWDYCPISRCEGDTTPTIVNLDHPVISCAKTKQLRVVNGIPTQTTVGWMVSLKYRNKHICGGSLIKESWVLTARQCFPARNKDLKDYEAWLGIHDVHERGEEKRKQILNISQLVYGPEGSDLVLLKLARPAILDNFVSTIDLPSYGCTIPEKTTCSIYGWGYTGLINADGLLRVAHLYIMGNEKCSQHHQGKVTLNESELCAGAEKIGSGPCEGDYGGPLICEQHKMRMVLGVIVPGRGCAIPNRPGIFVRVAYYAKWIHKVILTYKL

Row | Binder | IC50, neutralization of HGF stimulated BrdU incorporation in 4 MBr-5 cells [1] | IC50 [2] | binding result [3] | binding result [4] | binding result [5] | EC50, inhibition of HGF-stimulated c-Met phosphorylation in PC-3 cells, Average of Two Trials [6] | Kd [7] | koff [7] | kon [7] | Kd [8] | koff [8] | kon [8]
1 | sh2B8-9 (G1m(3)) = hu2B8 Hv5-51.1 + IgG1 constant region (G1m(3) allotype, allele 2) plus hu2B8 Kv1-39.1 + Kappa constant region (Km(3) allotype, allele 2) (antibody, Superhumanized 2B8 variant, human IgG1 kappa, made in 293T cells) heavy: not shown light: DIQMTQSPSSLSASVGDRVTITCKASENVVSYVSWYQQKPGKAPKLLIYGASNRNTGVPSRFSGSGSGTDFTLTISSLQPEDFATYYCGQSYNYPYTFGQGTKLEIKRTVAAPSVFIFPPSDEQLKSGTASVVCLLNNFYPREAKVQWKVDNALQSGNSQESVTEQDSKDSTYSLSSTLTLSKADYEKHKVYACEVTHQGLSSPVTKSFNRGEC | 0.52 nM | 4.2 nM | binds | no binding | binds | 0.93 nM | 0.0058 nM | 1.4e-05 s⁻¹ | 2.5e+06 M⁻¹ s⁻¹ | – | – | –
2 | HE2B8-1 (LR2B8HC + IgG1 constant region G1m(3) allotype allele 1, plus LR2B8LC + Kappa constant region Km(3) allotype allele 1) (antibody, V domains shown, Human Engineered 2B8 variant, human IgG1 kappa, made in HEK293E cells) VH: QVQLVQPGAEVVKPGTSVKLSCKASGYTFTTYWMHWVNQAPGQGLEWIGEINPTNGHTNYNEKFKGKATLTVDKSTSTAYMELSSLRSEDTAVYYCARNYVGSIFDYWGQGTLLTVSS VL: DIVMTQSPDSMAMSVGERVTLNCKASENVVSYVSWYQQKPGQSPKLLIYGASNRNTGVPDRFSGSGSATDFTLTISSVQAEDVADYHCGQSYNYPYTFGQGTKLEIKR | 0.47 nM | 6 nM | binds | no binding | binds | 0.8 nM | – | – | – | 0.0071 nM | 1.4e-05 s⁻¹ | 2.2e+06 M⁻¹ s⁻¹
3 | HE2B8-3 (LRMR2B8HC + IgG1 constant region G1m(3) allotype allele 1, plus LR2B8LC + Kappa constant region Km(3) allotype allele 1) (antibody, V domains shown, Human Engineered 2B8 variant, human IgG1 kappa, made in HEK293E cells) VH: QVQLVQPGAEVKKPGTSVKLSCKASGYTFTTYWMHWVRQAPGQGLEWIGEINPTNGHTNYNQKFQGRATLTVDKSTSTAYMELSSLRSEDTAVYYCARNYVGSIFDYWGQGTLLTVSS VL: DIVMTQSPDSMAMSVGERVTLNCKASENVVSYVSWYQQKPGQSPKLLIYGASNRNTGVPDRFSGSGSATDFTLTISSVQAEDVADYHCGQSYNYPYTFGQGTKLEIKR | 0.55 nM | 5.9 nM | binds | no binding | binds | 0.79 nM | – | – | – | 0.002 nM | 4.1e-06 s⁻¹ | 2e+06 M⁻¹ s⁻¹
4 | HE2B8-2 (LR2B8HC + IgG1 constant region G1m(3) allotype allele 1, plus LRMR2B8LC + Kappa constant region Km(3) allotype allele 1) (antibody, V domains shown, Human Engineered 2B8 variant, human IgG1 kappa, made in HEK293E cells) VH: QVQLVQPGAEVVKPGTSVKLSCKASGYTFTTYWMHWVNQAPGQGLEWIGEINPTNGHTNYNEKFKGKATLTVDKSTSTAYMELSSLRSEDTAVYYCARNYVGSIFDYWGQGTLLTVSS VL: DIVMTQSPDSLAMSLGERVTLNCKASENVVSYVSWYQQKPGQSPKLLIYGASNRESGVPDRFSGSGSATDFTLTISSVQAEDVADYHCGQSYNYPYTFGQGTKLEIKR | 0.66 nM | 5.7 nM | binds | no binding | binds | 0.88 nM | – | – | – | 0.0052 nM | 9.6e-06 s⁻¹ | 1.8e+06 M⁻¹ s⁻¹
